The values that follow come from patent publication US20170137511A1.

In the assay the target is biotinylated human IL-15 (R&D Systems cat. no. NF150) (human) (UniProt P40933). Put plainly: blocking ELISA: biotinylated human IL-15 (100 pM) binding to plate-bound IL-15Rα-Fc, antibody titrated, streptavidin-peroxidase, absorbance at 450 nm; the filing does not say in words which of the two partners the control antibody binds.
biotinylated human IL-15 (R&D Systems cat. no. NF150) (human), sequence (P40933 49-162 limits assumed): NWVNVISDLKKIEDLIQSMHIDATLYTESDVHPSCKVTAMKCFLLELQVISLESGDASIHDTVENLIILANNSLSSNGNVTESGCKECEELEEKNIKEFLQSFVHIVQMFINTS

In turn, “antibody known to block IL-15 binding to IL-15Rα (R&D Systems cat. no. NF150)” showed an IC50 (read off the curve) of 10 µg/mL.
